Molecular target: HAUSP TRAF domain (HAUSP^62-205) (human)
Test: ITC, titration against HAUSP TRAF domain, 20 °C

Binder | Ka [M⁻¹] | n (stoichiometry)
LVQELQEEKPSSSHL (modifications not checked) [MDM2^137-152 peptide] | 90000 | 
EGASTSGM (modifications not checked) [vIRF4^209-216 peptide] |  | 0.81
EQGPADDPGEGPSTG (modifications not checked) [EBNA1^435-449 peptide] |  | 0.81

Source: patent US20130330358A1, “CRYSTAL STRUCTURE AND PEPTIDE INHIBITORS OF HAUSP DEUBIQUITINASE” (priority 2011, published 2013)
